Laboratory results taken from patent EP4714976A1 (Sunshine Lake Pharma Co., Ltd., dated 2026).
Numbering of substitutions follows the chain as printed.

B1: 1C10 scFv-Fc (Fc fusion)
chain: QVQLQQSGAELVKPGASVKMSCKASGYTFRYYNMHWVKRTPGQGLEWIGLIYPDNGDTSYNQKFKGKATLTADTSSSTAYMQLSSLTSEDSAVYYCARGGLDYWGQGTSLTVSSGGGGSGGGGSGGGGSDIVMTQSPASLSASVGETVTITCRASGNIHNYLAWYQQKQGKSPQLLVYNAKTLADGVPSRFSGSGSGTQYSLKINSLQPEDFGSYYCQHFWSTPYTFGGGTKLEMKESKYGPPCPPCPAPEAAGGPSVFLFPPKPKDTLMISRTPEVTCVVVDVSQEDPEVQFNWYVDGVEVHNAKTKPREEQFNSTYRVVSVLTVLHQDWLNGKEYKCKVSNKGLPSSIEKTISKAKGQPREPQVYTLPPSQEEMTKNQVSLTCLVKGFYPSDIAVEWESNGQPENNYKTTPPVLDSDGSFFLYSKLTVDKSRWQEGNVFSCSVMHEALHNHYTQKSLSLSLG
notes: scFv-Fc dimer
B2: 3H9 scFv-Fc (Fc fusion)
chain: EIQLQQSGAELVKPGASVKMSCKASGYTFSFYNMHWVKRTPGQGLEWIGLIYPDNGDTSYNQKFKGKATLTADTSSSTAYMQLSSLTSEDSAVYYCARGGLDYWGQGTTLTVSSGGGGSGGGGSGGGGSDIVLTQSPASLSVSVGETVTITCRASENIYSNLAWYQQKQGKSPQLLVYAATNLADGVPSRFSGSGSGTQYSLKINSLQSEDFGSYYCQHFWGTPYTFGGGTKLELKESKYGPPCPPCPAPEAAGGPSVFLFPPKPKDTLMISRTPEVTCVVVDVSQEDPEVQFNWYVDGVEVHNAKTKPREEQFNSTYRVVSVLTVLHQDWLNGKEYKCKVSNKGLPSSIEKTISKAKGQPREPQVYTLPPSQEEMTKNQVSLTCLVKGFYPSDIAVEWESNGQPENNYKTTPPVLDSDGSFFLYSKLTVDKSRWQEGNVFSCSVMHEALHNHYTQKSLSLSLG
notes: scFv-Fc dimer
B3: 2B1 scFv displayed on phage (scFv)
scFv: EVQLQQSGAELVKPGASVKMSCKASGYTFASYNLHWVKQTPGQGLEWIGLIYPENGDTSYNQKFKGKATLTADKSSSTAYIQLSSLTSEDSAVYFCARGGFDYWGQGTSLTVSSGGGGSGGGGSGGGGSDIQMIQSPASLSVSVGETVTITCRASENIYSNLAWYQQKQGKSPQLLVYNAKTLADGVPSRFSGSGSGTQYSLKINSLQPEDFGSYYCQHFWSTPYTFGGGTKLEIK
B4: 3A8 scFv displayed on phage (scFv)
scFv: QVQLQQSGAELVKPGASVKMSCKASGYTFTIYNIHWVRQTPGQGLEWIGLIYPDNGDTSYNQKFKAKATLTADKSSSTAYMQLSSLTSEDSAVYYCARGGFDYWGQGTSLTVSSGGGGSGGGGSGGGGSDIVMTQSQKFMSTSVGDRVSVTCKASQNVGTNVAWYQQKPGQSPKALIYSASYRYSGVPDRFTGSGSGTDFTLTISNVQAEDLADYFCQQHYSTPYTFGGGTKLEMK
B5: 3F11 scFv displayed on phage (scFv)
scFv: B4 scFv with T30A, I31P, A209S, D214E, Y225F, G229S, M235I
B6: 3E7 scFv displayed on phage (scFv)
scFv: B4 scFv with S109T, D130N, N206G, F216Y, S222N, M235I
B7: 3C7 scFv displayed on phage (scFv)
scFv: EIQLQQSGAELVKPGASVKMSCKASGYIFRNYYIHWVKRTPGQGLEWIGAIYPDNGDTSYNQRFKVKATLTADTSSSTAYMQLSSLTSEDSAVYYCARAFTYWGQGTTLTVSSGGGGSGGGGSGGGGSDIQMIQSPASLSASVGETVTITCGASENIYGALNWYQRKQGKSPQLLIYGATNLADGMSSRFSGSGSGRQYSLKISSLHPDDVATYYCQNVLSTPYTFGGGTKLEIK
B8: 3B7 scFv displayed on phage (scFv)
scFv: EVQLQQSGAELVKPGASVKMSCKASGYTFRYYNMHWVKRTPGQGLEWIGLIYPDNGDTSYNQKFKGKATLTADTSSSTAYMQLSSLTSEDSAVYYCARGGFDYWGQGTTLTVSSGGGGSGGGGSGGGGSDIQMTQSPASLSASVGETVTITCGASENIYGALNWYQRKQGKSPQLLIYGATNLADGMSSRFSGSGSGRQYSLKISSLHPDDVATYYCQNVLSTPYTFGGGTKLELK
B9: 3F5 scFv displayed on phage (scFv)
scFv: B8 scFv with V2I, F101L, Q132V, M133L, L235I
B10: 3F10 scFv displayed on phage (scFv)
scFv: B8 scFv with R30S, Y31F, M34I, K38R, R39Q, G66A, T74K, I131V, Q132L, L235I
B11: 3E3 scFv displayed on phage (scFv)
scFv: QVQLQQPGAVLVKPGASVRMSCKASGYTFPYYNVHWVKRTPGQGLEWIGLIYPDNGDTSYNQKFTGKATLTADTSSSTAYMQLSSLTSEDSAVYYCARGGLDYWGQGTTLTVSAGGGGSGGGGSGGGGSDVQITQSPASLSASVGETVTITCGASENIYGALNWYQRKQGKSPQLLIYGATNLADGMSSRFSGSGSGRQYSLKISSLHPDDVATYYCQNVLSTPYTFGGGTKLEIK
B12: 3B4 scFv displayed on phage (scFv)
scFv: B8 scFv with E10D, R30S, K38R, F101L, T134I, L140M, L235M
B13: 3C9 scFv displayed on phage (scFv)
scFv: B8 scFv with V2I, T28I, F101L, T134I, L235I
B14: 3H6 scFv displayed on phage (scFv)
scFv: QVQLQQSGAELVKPGASVKMSCKASGYTFSFYNIHWVRQTPGQGLEWIGLIYPDNGDTSYNQKFKAKATLTADKSSSTAYMQLSSLTSEDSAVYYCARGGFDYWGQGTTLTVSSGGGGSGGGGSGGGGSDIQMTQSPASLSASVGETVTITCRASENIYSYLAWYQQKQGKSPQLLVYNAKTLAEGVPSRFSGSGSGTQFSLKINSLQPEDFGSYYCQHHYGTPYTFGGGTKLEMK

Target: T1, recombinant cynomolgus monkey FGFR2b (cynomolgus monkey)
T1 construct: extracellular domain; bought; also called cynomolgus macaque FGFR2b
Test: ELISA, antibody 1ug/mL

Binder	OD (450 nm) value
B1	3.3
B2	3.29

Target: T2, FGFR2b on KATO III cells (human, UniProt P21802-3 22-822)
T2 construct: whole, on cells; also called KATO III cells that overexpress FGFR2b
T2 sequence (P21802 other isoform, or with tags, fused parts or gaps): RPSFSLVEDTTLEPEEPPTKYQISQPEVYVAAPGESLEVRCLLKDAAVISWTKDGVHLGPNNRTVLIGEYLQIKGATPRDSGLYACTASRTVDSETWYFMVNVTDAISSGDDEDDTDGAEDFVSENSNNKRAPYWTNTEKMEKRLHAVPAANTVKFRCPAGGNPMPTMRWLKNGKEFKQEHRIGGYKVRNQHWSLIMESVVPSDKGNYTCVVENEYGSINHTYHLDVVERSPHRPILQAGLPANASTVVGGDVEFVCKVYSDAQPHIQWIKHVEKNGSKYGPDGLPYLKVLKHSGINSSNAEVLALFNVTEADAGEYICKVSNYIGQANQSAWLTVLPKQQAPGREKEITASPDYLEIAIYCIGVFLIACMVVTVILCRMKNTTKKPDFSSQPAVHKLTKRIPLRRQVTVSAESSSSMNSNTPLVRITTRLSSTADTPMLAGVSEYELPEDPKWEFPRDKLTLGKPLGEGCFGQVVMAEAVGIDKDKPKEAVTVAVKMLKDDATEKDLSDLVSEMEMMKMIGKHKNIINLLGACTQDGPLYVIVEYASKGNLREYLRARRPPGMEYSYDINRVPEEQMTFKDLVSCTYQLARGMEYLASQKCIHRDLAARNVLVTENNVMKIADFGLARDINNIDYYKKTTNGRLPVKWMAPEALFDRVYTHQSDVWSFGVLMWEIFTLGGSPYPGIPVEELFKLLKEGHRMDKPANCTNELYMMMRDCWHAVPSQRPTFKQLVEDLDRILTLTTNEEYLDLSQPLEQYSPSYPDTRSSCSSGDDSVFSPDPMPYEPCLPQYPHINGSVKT
Test: flow cytometry, KATO III cells

Binder	EC50 [µg/mL]
B1	0.152
B2	0.161

Target: FGFR2c (acro) (UniProt P21802 22-377)
Sequence (P21802 22-377): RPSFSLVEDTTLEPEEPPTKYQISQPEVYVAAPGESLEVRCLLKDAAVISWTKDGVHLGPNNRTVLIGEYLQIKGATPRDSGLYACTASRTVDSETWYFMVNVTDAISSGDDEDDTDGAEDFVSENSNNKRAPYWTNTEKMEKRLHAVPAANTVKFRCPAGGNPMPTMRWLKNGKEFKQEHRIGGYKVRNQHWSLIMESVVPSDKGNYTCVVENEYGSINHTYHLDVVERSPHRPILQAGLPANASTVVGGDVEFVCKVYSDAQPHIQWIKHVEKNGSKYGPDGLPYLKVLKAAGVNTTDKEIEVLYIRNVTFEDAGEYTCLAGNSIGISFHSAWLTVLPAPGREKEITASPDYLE
Test: ELISA, antibody 10 µg/mL

Binder	OD (450 nm) value
B1	0.553
B2	0.45

Target: T3, extracellular domain of FGFR2c protein (Example 1) (UniProt P21802 22-377)
T3 construct: extracellular domain
T3 sequence (P21802 22-377): as above
Test: phage ELISA

Binder	binding result
B3	no binding
B4	no binding
B5	no binding
B6	no binding
B7	no binding
B8	no binding
B9	no binding
B10	no binding
B11	no binding
B12	no binding
B13	no binding
B14	no binding

Target: T4, human FGFR2b (Kaixia Biotechnology, catalog number FGR-HM1BB) (human, UniProt P21802-3 22-378)
T4 construct: extracellular domain; bought; also called hFGFR2b; human FGFR2b protein
T4 sequence (P21802 other isoform, or with tags, fused parts or gaps): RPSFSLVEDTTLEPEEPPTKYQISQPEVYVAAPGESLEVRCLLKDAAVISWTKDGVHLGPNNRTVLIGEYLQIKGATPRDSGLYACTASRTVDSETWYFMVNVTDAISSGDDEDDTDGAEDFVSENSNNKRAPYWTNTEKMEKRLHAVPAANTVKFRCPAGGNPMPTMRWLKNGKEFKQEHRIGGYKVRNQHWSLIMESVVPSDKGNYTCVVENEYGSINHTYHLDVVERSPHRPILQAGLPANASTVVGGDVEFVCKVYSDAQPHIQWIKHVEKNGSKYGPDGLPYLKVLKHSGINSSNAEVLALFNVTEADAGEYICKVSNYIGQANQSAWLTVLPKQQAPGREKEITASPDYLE
Test: BLI, antibody on AHC2 sensor

Binder	Kd [nM]	koff [s⁻¹]	kon [M⁻¹ s⁻¹]
B1	11.1	0.00278	250000
B2	5.69	0.00152	267000

Target: T4, human FGFR2b (Kaixia Biotechnology, …)
Test: ELISA, FGFR2b coated at 1 µg/ml

Binder	EC50 [µg/mL]
B1	0.0159
B2	0.0278

Target: T3, extracellular domain of FGFR2c protein …
Test: phage ELISA
Remark: another data set of the same source

Binder	OD (450 nm) value
B3	0.049
B4	0.065
B5	0.045
B6	0.034
B7	0.04
B8	0.043
B9	0.038
B10	0.039
B11	0.033
B12	0.042
B13	0.033
B14	0.062
